From patent publication US20060281899A1, “Mutants of biotin binding protein” (priority 2002, published 2006) come the findings set out here.

For series [1], the system named is biotinylated alkaline phosphatase. The series is described as follows: Microtiter plate assay, biotin-binding activity after heat treatment at 99.9° C. Type of series: physicochemical. As to conditions: 99.9° C. for various time periods. The method, then:
Reversibility of biotin binding was measured for avidin and the mutants with an IAsys optical biosensor (Laitinen, O. H. et al., FEBS Lett 461 (1999), 52-8). Protein samples were allowed to bind to a biotin-aminosilane cuvette in PBS containing 1 M NaCl. After the equilibrium was reached, biotin-containing buffer was added and the dissociation of the proteins was monitored. The affinities of the proteins towards 2-iminobiotin were determined with an IAsys optical biosensor (Marttila, A. T. et al. FEBS Lett 441 (1998), 313-7). Biotin-binding activity of the mutants Avd-ci and Avd-ccci after heat treatment was studied with a microtiter plate assay. Protein samples, 5 μg/ml concentration in PBS, were heated for various time periods at 99.9° C. and then chilled on ice. The samples were transferred to a Nunc Maxisorp-plate and incubated at 37° C. for 2 h. The wells were washed three times with PBS-Tween (0.05% v/v). […] The absorbances at 405 nm were measured after incubation for 45 minutes.
Biotin-binding activity of the proteins after heat treatment was studied with a microtiter plate assay (Nordlund, H. R., Laitinen, O. H., Uotila, S. T., Nyholm, T., Hytönen, V. P., Slotte, J. P. & Kulomaa, M. S. (2003) J. Biol. Chem. 278, 2479-2483). […] The absorbencies at 405 nm were measured after incubation for 45 minutes.

Series [2] is described as follows: Non-reducing SDS-PAGE thermostability, oligomeric forms after boiling. Format: physicochemical. Conditions: boiled 20 minutes. The method, then: The heat stability of the AVRs was studied by using an SDS-PAGE-based method (Bayer, E. A., Ehrlich-Rogozinski, S. and Wilchek, M. (1996) Electrophoresis 17, 1319-1324). In this method, each protein sample was divided into two fractions one of which was kept biotin-free and the other was supplemented with an excess of biotin. The samples were then mixed with denaturing SDS-PAGE sample buffer (containing β-mercaptoethanol) and incubated at a given temperature for 20 minutes. After heat treatment, the samples were subjected to SDS-PAGE and visualised by staining with Coomassie brilliant blue. The relative proportions of tetrameric and monomeric forms of the AVR proteins (with avidin as the control) were detected. A similar assay, with β-mercaptoethanol omitted from the sample buffer, was performed to examine the presence of intersubunit disulfide-bridges. Sensitivity to proteinase K was studied both in the absence and in the presence of biotin as described (Laitinen, O. H., Airenne, K. J., Marttila, A. T., Kulik, T., Porkka, E., Bayer, E. A., Wilchek, M. and Kulomaa, M. S. (1999) FEBS Lett. 461, 52-8). The isoelectric point of each AVR was determined by isoelectric focusing as previously reported (Marttila, A. T., Airenne, K. J., Laitinen, O. H., Kulik, T., Bayer, E. A., Wilchek, M. and Kulomaa, M. S. (1998) FEBS Lett. 441, 313-317). The glycosylation patterns of the AVR proteins were studied by treating the proteins with Endo Hf and PNGase F glycosidase according to the manufacturer's instructions (New England Biolabs, Mass., USA).

A short description of series [3]: IAsys optical biosensor, AVR4/5 forms binding to 2-iminobiotin surface. Conditions: for Kd: 20° C. The method, then: The biotin-binding characteristics of the different avidins were studied using an IAsys optical biosensor at 20° C. The reversibility of binding and binding affinities to the 2-iminobiotin surface in 50 mM borate buffer (pH 9.5, 1 M NaCl) were measured as previously reported (Laitinen, O. H., Hytönen, V. P., Ahlroth, M. K., Pentikäinen, O. T., Gallagher, C., Nordlund, H. R., Ovod, V., Marttila, A. T., Porkka, E., Heino, S., Johnson, M. S., Airenne, K. J. & Kulomaa, M. S. (2002) Biochem. J. 363, 609-617).
Briefly, The 2-iminobiotin ligand was immobilized onto the carboxymethyldextran surface of a cuvette using N-hydroxysuccinimide activation. Binding of various concentrations of avidin or avidin mutants onto 2-iminobiotinylated surface were measured in a 50 mM borate buffer (pH 9.5) containing 1 M NaCl at 20° C. The iminobiotin cuvettes were regenerated with 20 mM HCl. The kinetic rate constants for association (kass) and dissociation (kdiss) were calculated using the Fast Fit program package (Affinity Sensors). The obtained rate constants were used to calculate Kd(rel) according to Kd=kdiss/kass. Equilibrium data obtained from measurements with different protein concentrations were used to calculate the dissociation constant Kd(eq).

Where two headings read alike, the source gives them in different places.

As usually defined, the Kd is the constant that tells how readily two partners part at equilibrium.

B1: AVR4/5: Recombinant chicken avidin-related protein 4/5 (AVR4 and AVR5 identical in coding sequence) (protein, UniProt P56734 25-150, looked up)
Avidin-related protein 4/5: ARKCSLTGKWTNNLGSIMTIRAVNSRGEFTGTYLTAVADNPGNITLSPLLGIQHKRASQPTFGFTVHWNFSESTTVFTGQCFIDRNGKEVLKTMWLLRSSVNDISYDWKATRVGYNNFTRLCTVEE
Take B1: the “biotin-binding activity after heat treatment” value in series [1] is reported as “superior stability against boiling”. Moreover, in series [2], the “Dimeric form, relative proportion” value is 50 percentage and the “Monomeric form, relative proportion” value stood at 50 percentage. In addition, in series [3], the kass entry is reported as “(7.0 ± 2.1) × 10^3 M^−1s^−1” and the kdiss entry is listed as “(1.6 ± 1.4) × 10^−3 s^−1”. For the same molecule, the Kd in series [3] (50 mM borate pH 9.5, 1 M NaCl, read-out: Kd detected from the equilibrium response data) came out at 160 nM. Besides, in series [3] (pH 9.5, 1 M NaCl, read-out: Kd detected directly from the binding curves), the Kd is 230 nM.
